Experimental findings from publication PMC9351570 are described below.

The assay concerns the target nucleosome: recombinant Xenopus laevis histone octamer assembled on 601 DNA with flanking DNA (Xenopus laevis).

With “mutant INO80 complex purified from yeast lacking Arp5 (from UniProt P53115 1-1489; P40154 1-320; Q12386 1-881)”, the nucleosome sliding, native gel remodeling assay, kobs; 601 + 80 WT nucleosome came to 0.006 min⁻¹.
